Source: EP1073891B1, “METHOD OF PREDICTING RECEPTOR MODULATING ACTIVITY” (Duke University, priority 1998, dated 1999)

What was measured:
Type in all cases: cell-based
[1] = molecular target: T1, ERα (Homo sapiens, UniProt P03372); test: Disruption of ERα transcriptional activity by peptide-Gal4DBD fusions, 3xERELuc reporter in HeLa cells (Examples 101.4, 101.7)
T1 sequence (P03372 1-595): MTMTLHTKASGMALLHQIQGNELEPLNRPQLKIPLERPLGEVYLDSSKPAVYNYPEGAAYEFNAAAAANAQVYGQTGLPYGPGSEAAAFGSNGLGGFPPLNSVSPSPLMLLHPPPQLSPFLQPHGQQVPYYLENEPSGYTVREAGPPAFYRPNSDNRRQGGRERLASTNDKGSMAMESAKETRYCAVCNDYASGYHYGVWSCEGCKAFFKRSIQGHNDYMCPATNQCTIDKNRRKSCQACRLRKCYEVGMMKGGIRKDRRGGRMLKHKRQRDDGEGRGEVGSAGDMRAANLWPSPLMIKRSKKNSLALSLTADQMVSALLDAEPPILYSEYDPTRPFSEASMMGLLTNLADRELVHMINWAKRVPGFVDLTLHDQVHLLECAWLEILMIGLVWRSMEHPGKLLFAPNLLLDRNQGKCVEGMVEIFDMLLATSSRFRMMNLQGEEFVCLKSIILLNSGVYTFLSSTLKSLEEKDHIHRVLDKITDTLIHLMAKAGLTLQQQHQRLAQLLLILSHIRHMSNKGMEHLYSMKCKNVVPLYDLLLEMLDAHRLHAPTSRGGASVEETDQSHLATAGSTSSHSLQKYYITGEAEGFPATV
Protocol: HeLa cells were transfected with ERα expression plasmid (RST7ERα), 3xERELuc reporter, pCMVβgal along with different peptide-Gal4DBD fusion constructs. pM is the Gal4DBD control without peptide fusion. Luciferase activity was measured and normalized (Fig. 16). The ability of different peptides to disrupt ERα transcriptional activity correlates with the affinity of these peptides to ERα as measured in mammalian two-hybrid assays in [Figure 15(A)]. […] Two copies of LXXLL motifs interact synergistically to disrupt ER transcriptional activity. 2XF6: two copies of F6 peptide was constructed in tandem with a 54-amino acid spacing linker that has the same sequence as in that in between GRIP-1 NR box II and NR box III. F6G:Ga14DBD-F6 fusion with only one copy of F6 peptide plus the linker. Transient transfection was performed in HeLa cells with 3xERELuc, RST7ERα, pCMVβgal and increasing amount of Gal4DBD-peptide fusion constructs as indicated in the X-axis.
(§1) It contains the LXXLL motif. […] HeLa cells were transfected with either ERα or ERβ expression plasmids along with 3xERELuc reporter, pCMVβgal and peptide-DBD fusion constructs as indicated.

[2] = molecular target: T2, RAR (Homo sapiens, UniProt P10276); test: Mammalian two-hybrid of LXXLL peptides with nuclear receptors (Example 101.6); conditions: mammalian two-hybrid receptor panel
T2 construct: Full length receptors and selected peptides were expressed as VP16 and Gal4 DBD fusions, respectively; expressed in transfected cells; host or cells: mammalian cells
T2 sequence (P10276 1-462): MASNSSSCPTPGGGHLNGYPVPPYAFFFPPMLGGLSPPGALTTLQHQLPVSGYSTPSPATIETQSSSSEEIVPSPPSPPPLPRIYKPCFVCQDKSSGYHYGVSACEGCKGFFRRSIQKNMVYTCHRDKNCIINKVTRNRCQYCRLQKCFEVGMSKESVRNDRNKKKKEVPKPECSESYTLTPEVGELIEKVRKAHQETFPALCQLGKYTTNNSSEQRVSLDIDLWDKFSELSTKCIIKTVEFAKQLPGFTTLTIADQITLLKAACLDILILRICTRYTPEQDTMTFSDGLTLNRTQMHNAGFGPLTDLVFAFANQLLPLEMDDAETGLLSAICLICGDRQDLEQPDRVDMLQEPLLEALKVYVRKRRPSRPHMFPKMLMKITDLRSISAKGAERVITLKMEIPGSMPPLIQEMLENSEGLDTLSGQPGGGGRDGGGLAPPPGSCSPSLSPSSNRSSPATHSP
Source text: (§2) Plasmids: All the Gal4DBD-peptide fusions were constructed as follows: DNA sequences code for the peptides were excised from mBAX vector with Xhol and Xbal restriction enzymes and subcloned into pMsx vector derived from pM vector (Clontech) with a linker sequence to generate infram Sall and Nhel sites for cloning. VP16ER-a construct was generated by polymerase chain reaction (PCR) of full length human ER-α cDNA with primers containing ECoRI flanking both 5' and 3' ends. […]
(§3) The interactions between different LXXLL motifs and different nuclear receptors were assayed in a mammalian two-hybrid system (Fig. 18). Full length receptors and selected peptides were expressed as VP16 and Gal4 DBD fusions, respectively. The strength of the interactions was measured by the activity of the 5xGa14Luc3 reporter gene. […]

[3] = molecular target: T3, TR (Homo sapiens, UniProt P10828); test: as above; conditions: mammalian two-hybrid receptor panel
T3 construct: Full length receptors and selected peptides were expressed as VP16 and Gal4 DBD fusions, respectively; expressed in transfected cells; host or cells: mammalian cells; the plasmid was a gift (D.D. More, Baylor College of Medicine)
T3 sequence (P10828 1-461): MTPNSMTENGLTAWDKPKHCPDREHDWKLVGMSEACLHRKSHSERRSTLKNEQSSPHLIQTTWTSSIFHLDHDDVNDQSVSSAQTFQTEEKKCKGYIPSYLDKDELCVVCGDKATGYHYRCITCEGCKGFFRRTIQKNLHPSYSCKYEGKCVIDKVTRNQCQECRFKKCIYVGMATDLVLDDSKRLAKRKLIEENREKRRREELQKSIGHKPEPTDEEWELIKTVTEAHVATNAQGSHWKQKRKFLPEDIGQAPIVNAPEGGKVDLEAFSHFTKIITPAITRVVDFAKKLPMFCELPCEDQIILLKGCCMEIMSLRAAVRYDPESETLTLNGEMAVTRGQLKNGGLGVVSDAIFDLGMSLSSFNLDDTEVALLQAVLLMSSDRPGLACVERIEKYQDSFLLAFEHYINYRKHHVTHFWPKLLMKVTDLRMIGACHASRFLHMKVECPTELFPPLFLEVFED
Source text: as §2, §3

[4] = molecular target: T4, ERβ (Homo sapiens, UniProt Q92731); test: Disruption of ERβ transcriptional activation by peptide-DBD fusions, 3xERELuc reporter in HeLa cells (Example 101.7); conditions: 17β-estradiol
Source text: as §1
Target sequence in this assay (Q92731 whole entry, the tested form may be a part): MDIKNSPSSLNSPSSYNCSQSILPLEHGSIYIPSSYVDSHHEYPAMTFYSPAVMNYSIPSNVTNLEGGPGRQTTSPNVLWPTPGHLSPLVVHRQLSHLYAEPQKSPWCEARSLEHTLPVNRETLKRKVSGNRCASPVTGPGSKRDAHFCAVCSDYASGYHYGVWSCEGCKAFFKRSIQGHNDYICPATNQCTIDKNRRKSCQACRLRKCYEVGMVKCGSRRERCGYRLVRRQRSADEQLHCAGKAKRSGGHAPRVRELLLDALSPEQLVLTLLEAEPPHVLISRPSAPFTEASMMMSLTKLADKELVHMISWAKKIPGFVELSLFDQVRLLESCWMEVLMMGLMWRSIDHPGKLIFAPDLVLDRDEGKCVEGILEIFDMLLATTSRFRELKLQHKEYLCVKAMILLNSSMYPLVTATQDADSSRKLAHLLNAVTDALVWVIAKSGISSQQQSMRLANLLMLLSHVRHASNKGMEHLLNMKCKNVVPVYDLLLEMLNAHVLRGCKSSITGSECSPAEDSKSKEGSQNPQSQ

[5] = molecular target: T4, ERβ; test: Mammalian two-hybrid of LXXLL peptides with nuclear receptors (Example 101.6); set-up: Full length receptors and selected peptides were expressed as VP16 and Gal4 DBD fusions, respectively; expressed in transfected cells; conditions: mammalian two-hybrid receptor panel
Source text: as §2, §3
Target sequence in this assay (Q92731 whole entry, species assumed, the tested form may be a part): as the sequence (Q92731 whole entry, the tested form may be a part) above

SSIKDFPNLISLLSR [Peptide #293]
disruption of ERα transcriptional activity [1]: did not interfere
interaction with RARα [2]: selective interactions
interaction with TRβ [3]: selective interactions
disruption of the transcriptional activation by ERβ [4]: strongly disrupted
interaction with ERβ [5]: selective interactions
